The text below walks through data of PMC5623066.

pKd: −log10 of the molar value.

The test concerns the target TDP2 used in vitro (construct not stated) (UniProt O95551).

In the case of “SUMO2 used in vitro (from UniProt P61956 10-93) (natural protein)”, the pKd (as a rule, −log10 of the Kd, conventionally taken in molar units) was 6.06.
